Publication PMC3779476 (Nature, 2013)

Target: the molecule itself
Assay: native gel or EMSA

B1: LamB (natural protein)
chain: VDFHGYARSGIGWTGSGGEQQCFQTTGAQSKYRLGNECETYAELKLGQEVWKEGDKSFYFDTNVAYSVAQQNDWEATDPAFREANVQGKNLIEWLPGSTIWAGKRFYQRHDVHMIDFYYWDISGPGAGLENIDVGFGKLSLAATRSSEAGGSSSFASNNIYDYTNETANDVFDVRLAQMEINPGGTLELGVDYGRANLRDNYRLVDGASKDGWLFTAEHTQSVLKGFNKFVVQYATDSMTSQGKGLSQGSGVAFDNEKFAYNINNNGHMLRILDHGAISMGDNWDMMYVGMYQDINWDNDNGTKWWTVGIRPMYKWTPIMSTVMEIGYDNVESQRTGDKNNQYKITLAQQWQAGDSIWSRPAIRVFATYAKWDEKWGYDYTGNADNNANFGKAVPADFNGGSFGRGDSDEWTFGAQMEIWW
Question: For B1, which “stoichiometry N” value is on record?
Answer: The value was 3.
